From PMC1890005 (The Journal of biological chemistry, 2006) come the findings set out here.

The experiment addresses T1, σ^C4 domain of M. tuberculosis σ^C (M. tuberculosis).
T1 chain: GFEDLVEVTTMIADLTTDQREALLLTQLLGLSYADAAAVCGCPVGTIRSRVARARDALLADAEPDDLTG
Briefly: SPR.

B1: σ^C2 domain of M. tuberculosis σ^C (domain or fragment)
chain: MTATASDDEAVTALALSAAKGNGRALEAFIKATQQDVWRFVAYLSDVGSADDLTQETFLRAIGAIPRFSARSSARTWLLAIARHVVADHIRHVRSRPRTTRGARPEHLIDGD
The molecule B1 registered an equilibrium dissociation constant (Kd) of 1810 ± 30 nM.
